These results are taken from patent US9549967B2, “Regulation of sodium channels by PLUNC proteins” (The University of North Carolina at Chapel Hill, priority 2009, dated 2017).

What all share (type): cell-based
For one experiment, the target named is T1, CFTR (Homo sapiens, UniProt P13569).
T1 construct: expressed in transfected cells; host or cells: Xenopus laevis oocytes
Kind of experiment: CFTR activity in Xenopus oocytes co-expressing CFTR and β2 adrenergic receptor. Particulars: after 10 μM isoproterenol. The method, then:
(§1) Oocyte studies. Xenopus laevis oocytes were harvested and injected as described (Donaldson, et al., J. Biol. Chem. 277:8338 (2002)). Defolliculated healthy stage V-VI oocytes were injected with 0.3 ng of cRNA of each ENaC subunit. Injected oocytes were kept in modified Barth's saline (in mM: 88 NaCl, 1 KCl, 2.4 NaHCO3, 0.3 Ca(NO3)2, 0.41 CaCl2, 0.82 MgSO4, and 15 HEPES, adjusted to pH 7.35 with Tris). Oocytes were studied 24 hr after injection using the two electrode voltage clamp technique as previously described (Donaldson, et al., J. Biol. Chem. 277:8338 (2002)). Oocytes were clamped at a holding potential of […]. The change in amiloride-sensitive whole cell current as an indicator of ENaC activity was determined by subtracting the corresponding current value measured in the presence of 10 μM amiloride from that measured before the application of amiloride.
In both cases, we co-expressed CFTR with the β2 adrenergic receptor (β2AR) which can be stimulated with isoproterenol to raise cAMP and stimulate CFTR (Uezono et al., Receptors Channels 1:233 (1993)).

In the next experiment the test system is serine proteases. As to the kind of experiment: Endogenous protease activity (BGAR-MCA cleavage) on mucosal surfaces of human bronchial epithelial cultures. How it is done:
For cell-free assays, reactions were carried out in 50 μl Ringer in a 96 well plate format with 100 μM BGAR-MCA. To measure endogenous protease activity in human bronchial epithelial cultures, 30 μl Ringer with 100 μM BGAR-MCA were placed directly onto the mucosal surfaces of human bronchial epithelial cultures grown on 12 mm T-clear inserts and the cultures were assayed in 12 well plates.

In experiment [1] the target is T2, αR205,231Kβ, γR138K ENaC mutant (Rattus norvegicus, UniProt P37089+P37090+P37091, R138K/R205K/R231K).
T2 construct: expressed in transfected cells; host or cells: Xenopus laevis oocytes
T2 sequence (P37089 1-698 R205K/R231K): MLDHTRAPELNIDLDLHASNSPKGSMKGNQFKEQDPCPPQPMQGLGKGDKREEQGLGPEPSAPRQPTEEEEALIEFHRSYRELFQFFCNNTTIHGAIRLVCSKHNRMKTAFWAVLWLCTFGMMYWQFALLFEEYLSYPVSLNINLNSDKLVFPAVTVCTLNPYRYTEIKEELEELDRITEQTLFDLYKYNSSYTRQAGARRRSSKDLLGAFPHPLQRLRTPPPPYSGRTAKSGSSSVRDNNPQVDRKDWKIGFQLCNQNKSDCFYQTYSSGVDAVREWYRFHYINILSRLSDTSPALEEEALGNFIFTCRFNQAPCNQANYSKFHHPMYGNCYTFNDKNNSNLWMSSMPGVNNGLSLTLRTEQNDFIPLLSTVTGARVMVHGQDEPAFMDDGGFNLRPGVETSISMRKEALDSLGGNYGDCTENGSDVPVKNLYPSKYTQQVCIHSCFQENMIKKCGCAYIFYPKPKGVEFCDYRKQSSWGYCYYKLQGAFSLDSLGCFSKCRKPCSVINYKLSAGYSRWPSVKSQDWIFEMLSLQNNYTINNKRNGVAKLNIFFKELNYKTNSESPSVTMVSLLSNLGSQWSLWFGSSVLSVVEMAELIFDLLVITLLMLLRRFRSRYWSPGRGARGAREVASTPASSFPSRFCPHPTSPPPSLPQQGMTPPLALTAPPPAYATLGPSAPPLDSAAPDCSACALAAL
T2 sequence (P37090 1-638): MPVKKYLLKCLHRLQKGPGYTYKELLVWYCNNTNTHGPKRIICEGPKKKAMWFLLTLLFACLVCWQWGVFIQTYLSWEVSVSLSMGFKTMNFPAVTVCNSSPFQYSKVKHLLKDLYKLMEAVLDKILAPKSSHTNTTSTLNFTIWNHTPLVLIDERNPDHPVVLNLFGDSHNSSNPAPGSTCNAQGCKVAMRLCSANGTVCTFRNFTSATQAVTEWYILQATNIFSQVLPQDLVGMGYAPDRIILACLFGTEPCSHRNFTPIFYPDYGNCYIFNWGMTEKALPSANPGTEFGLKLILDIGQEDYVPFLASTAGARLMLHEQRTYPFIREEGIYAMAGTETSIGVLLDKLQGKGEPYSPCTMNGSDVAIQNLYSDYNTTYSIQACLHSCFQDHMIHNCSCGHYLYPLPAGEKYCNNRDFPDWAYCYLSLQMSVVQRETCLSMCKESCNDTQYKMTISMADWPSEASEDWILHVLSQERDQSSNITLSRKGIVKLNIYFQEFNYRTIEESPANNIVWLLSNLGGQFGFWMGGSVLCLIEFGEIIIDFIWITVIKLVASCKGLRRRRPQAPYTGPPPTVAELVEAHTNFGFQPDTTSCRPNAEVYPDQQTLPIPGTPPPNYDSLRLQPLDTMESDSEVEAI
T2 sequence (P37091 1-650 R138K): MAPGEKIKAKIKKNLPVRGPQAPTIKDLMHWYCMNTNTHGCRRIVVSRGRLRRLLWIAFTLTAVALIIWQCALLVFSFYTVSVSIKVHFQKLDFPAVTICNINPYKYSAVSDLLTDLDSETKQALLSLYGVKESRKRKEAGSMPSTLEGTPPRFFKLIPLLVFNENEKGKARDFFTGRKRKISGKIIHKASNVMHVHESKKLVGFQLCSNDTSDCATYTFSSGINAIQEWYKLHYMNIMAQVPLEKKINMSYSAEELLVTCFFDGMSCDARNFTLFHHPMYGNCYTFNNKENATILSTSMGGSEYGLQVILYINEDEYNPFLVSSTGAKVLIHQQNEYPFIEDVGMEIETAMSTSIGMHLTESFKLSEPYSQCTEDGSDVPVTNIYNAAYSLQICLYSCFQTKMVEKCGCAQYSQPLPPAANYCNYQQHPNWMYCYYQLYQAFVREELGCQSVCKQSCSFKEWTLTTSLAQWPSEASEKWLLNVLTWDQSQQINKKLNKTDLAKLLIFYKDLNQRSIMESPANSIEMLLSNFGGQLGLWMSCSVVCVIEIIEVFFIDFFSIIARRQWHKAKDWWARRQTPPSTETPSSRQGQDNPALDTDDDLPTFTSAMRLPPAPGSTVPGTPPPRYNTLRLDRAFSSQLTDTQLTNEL
As to the kind of experiment: Oocyte current of furin-insensitive ENaC mutant. Particulars: co-expression in oocytes. How it is done:
as §1

T1 sequence (P13569 whole entry, species assumed): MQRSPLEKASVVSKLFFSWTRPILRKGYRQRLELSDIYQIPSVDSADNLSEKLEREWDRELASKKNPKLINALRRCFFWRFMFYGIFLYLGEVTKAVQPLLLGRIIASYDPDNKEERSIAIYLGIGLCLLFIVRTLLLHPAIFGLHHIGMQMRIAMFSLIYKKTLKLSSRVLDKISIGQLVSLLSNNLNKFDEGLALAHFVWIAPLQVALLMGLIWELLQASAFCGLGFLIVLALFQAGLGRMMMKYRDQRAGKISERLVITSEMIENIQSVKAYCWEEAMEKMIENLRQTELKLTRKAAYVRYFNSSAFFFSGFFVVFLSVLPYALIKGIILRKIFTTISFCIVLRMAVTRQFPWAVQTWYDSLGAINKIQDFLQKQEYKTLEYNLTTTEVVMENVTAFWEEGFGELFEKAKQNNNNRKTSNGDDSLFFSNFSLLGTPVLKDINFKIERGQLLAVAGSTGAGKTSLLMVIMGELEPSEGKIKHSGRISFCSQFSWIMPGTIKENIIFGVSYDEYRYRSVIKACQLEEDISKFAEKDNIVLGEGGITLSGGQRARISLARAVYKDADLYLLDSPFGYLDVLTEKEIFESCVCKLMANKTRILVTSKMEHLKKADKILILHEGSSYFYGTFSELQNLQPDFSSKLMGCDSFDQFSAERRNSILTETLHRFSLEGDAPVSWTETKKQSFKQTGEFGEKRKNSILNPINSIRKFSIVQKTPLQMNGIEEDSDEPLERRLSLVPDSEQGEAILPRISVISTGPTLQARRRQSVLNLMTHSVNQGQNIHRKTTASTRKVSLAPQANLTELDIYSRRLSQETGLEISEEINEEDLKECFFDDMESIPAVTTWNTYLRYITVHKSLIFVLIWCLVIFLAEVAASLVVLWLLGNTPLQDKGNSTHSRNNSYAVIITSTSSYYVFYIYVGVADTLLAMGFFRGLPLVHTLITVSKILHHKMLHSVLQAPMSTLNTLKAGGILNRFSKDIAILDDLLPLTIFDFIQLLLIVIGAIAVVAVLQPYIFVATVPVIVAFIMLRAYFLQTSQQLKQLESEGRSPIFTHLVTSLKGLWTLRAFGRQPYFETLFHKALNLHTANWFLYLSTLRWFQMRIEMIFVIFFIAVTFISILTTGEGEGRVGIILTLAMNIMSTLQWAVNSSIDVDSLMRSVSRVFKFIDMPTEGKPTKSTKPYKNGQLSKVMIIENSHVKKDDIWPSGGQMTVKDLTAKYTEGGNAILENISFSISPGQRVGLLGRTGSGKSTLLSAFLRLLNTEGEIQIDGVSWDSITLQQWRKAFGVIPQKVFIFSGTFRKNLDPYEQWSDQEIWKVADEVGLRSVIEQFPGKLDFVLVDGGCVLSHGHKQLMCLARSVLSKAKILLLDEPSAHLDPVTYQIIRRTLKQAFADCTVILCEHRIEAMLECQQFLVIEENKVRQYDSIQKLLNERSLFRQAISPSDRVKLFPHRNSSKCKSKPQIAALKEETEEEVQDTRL

B1: SPLUNC1: human SPLUNC1, 256 amino acid secreted PLUNC protein (SEQ ID NO:1); rSPLUNC1 = V5/6His-tagged protein purified from HEK293 media (protein, listed as Homo sapiens)
chain: MFQTGGLIVFYGLLAQTMAQFGGLPVPLDQTLPLNVNPALPLSPTGLAGSLTNALSNGLLSGGLLGILENLPLLDILKPGGGTSGGLLGGLLGKVTSVIPGLNNIIDIKVTDPQLLELGLVQSPDGHRLYVTIPLGIKLQVNTPLVGASLLRLAVKLDITAEILAVRDKQERIHLVLGDCTHSPGSLQISLLDGLGPLPIQGLLDSLTGILNKVLPELVQGNVCPLVNEVLRGLDITLVHDIVNMLIHGLQFVIKV
modifications: V5/6His tag
notes: rSPLUNC1 = V5/6His-tagged protein purified from HEK293 media
For the molecule B1, the “effect on CFTR activity” value with CFTR (5 ng/ml rSPLUNC1 exposure) and in the experiment with CFTR (injection of SPLUNC1 cRNA) was “no inhibitory effect” throughout. The “spontaneous BGAR-MCA cleavage on mucosal surfaces” value in the experiment on serine proteases is “no significant affect”. In experiment [1], the “inhibition of furin-insensitive ENaC mutant” value is listed as “inhibited”.
